Results published in PMC6194124, “Mannosidase activity of EDEM1 and EDEM2 depends on an unfolded state of their glycoprotein substrates” (Communications Biology, 2018).

Target: T1, EDEM1-HA (UniProt Q925U4 1-652)
T1 construct: source: HEK 293, transiently transfected (pCMVsport2), in lysate
T1 sequence (looked up): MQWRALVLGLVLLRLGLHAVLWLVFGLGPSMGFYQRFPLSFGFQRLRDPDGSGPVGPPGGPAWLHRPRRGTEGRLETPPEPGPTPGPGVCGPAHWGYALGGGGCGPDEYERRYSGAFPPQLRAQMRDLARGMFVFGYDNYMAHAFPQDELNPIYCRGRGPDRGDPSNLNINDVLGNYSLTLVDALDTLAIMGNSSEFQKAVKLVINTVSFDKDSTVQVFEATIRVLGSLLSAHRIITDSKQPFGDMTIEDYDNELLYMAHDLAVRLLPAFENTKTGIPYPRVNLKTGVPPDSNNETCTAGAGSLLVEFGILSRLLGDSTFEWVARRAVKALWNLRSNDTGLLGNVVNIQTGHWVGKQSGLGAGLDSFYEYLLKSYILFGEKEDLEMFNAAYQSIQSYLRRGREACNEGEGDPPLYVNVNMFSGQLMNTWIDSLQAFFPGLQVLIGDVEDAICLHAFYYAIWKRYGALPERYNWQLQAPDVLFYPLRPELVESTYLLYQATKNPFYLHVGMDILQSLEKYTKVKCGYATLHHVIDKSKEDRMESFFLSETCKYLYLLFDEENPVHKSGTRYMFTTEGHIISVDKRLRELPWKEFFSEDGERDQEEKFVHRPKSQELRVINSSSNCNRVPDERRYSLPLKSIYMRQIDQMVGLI
Experiment: co-IP; HEK 293 cells expressing EDEM1-HA or EDEM2-HA with FLAG-TXNDC11 or FLAG-PDI; lysed in mild conditions (1% NP-40, 50 mM Tris/HCl pH 8, 150 mM NaCl); immunoprecipitated with anti-EDEM1 or anti-EDEM2, immunoblotted with anti-FLAG
Conditions: partners not purified

- fold weaker coIP than with TXNDC11: ~15 fold
B1: FLAG-PDI (enzyme)
chain: not shown
notes: mammalian protein disulfide isomerase (PDI); vector a gift from E. Avezov; also called protein disulfide isomerase; source: HEK 293, transiently transfected, in lysate
